Source: patent US20230312710A1 (Hoffmann-La Roche, published 2023)
Positions count from the first letter of the chain named.

T1: human CD19 on WSU-DLCL2 cells (human, UniProt P15391 20-556)
T1 construct: Endogenous CD19 of the B-cell non-Hodgkin lymphoma line WSU-DLCL2; also called CD19+ WSU-DLCL2; human CD19-expressing tumor cells
T1 sequence: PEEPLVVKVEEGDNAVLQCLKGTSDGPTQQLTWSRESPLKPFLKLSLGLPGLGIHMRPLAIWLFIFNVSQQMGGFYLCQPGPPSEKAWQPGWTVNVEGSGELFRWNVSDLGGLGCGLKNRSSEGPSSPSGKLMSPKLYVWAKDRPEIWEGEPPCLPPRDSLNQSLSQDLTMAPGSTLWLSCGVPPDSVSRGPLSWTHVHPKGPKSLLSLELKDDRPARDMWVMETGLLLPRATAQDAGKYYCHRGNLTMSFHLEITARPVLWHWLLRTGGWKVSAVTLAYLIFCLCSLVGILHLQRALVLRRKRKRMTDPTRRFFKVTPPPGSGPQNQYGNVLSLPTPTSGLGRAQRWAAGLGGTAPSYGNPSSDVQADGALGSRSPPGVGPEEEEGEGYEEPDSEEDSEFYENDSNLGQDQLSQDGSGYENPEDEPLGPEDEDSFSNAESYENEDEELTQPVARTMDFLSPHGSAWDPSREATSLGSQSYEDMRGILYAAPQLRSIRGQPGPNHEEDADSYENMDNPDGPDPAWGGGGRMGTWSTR

B1: parental humanized anti-CD19 clone 8B8, Fab in bacterial supernatant (Fab, V domains shown)
VH: QVQLVQSGAEVKKPGASVKVSCKASGYTFTDYIMHWVRQAPGQGLEWMGYINPYNDGSKYTEKFQGRVTMTSDTSISTAYMELSRLRSDDTAVYYCARGTYYYGSALFDYWGQGTTVTVSS
VL: DIVMTQTPLSLSVTPGQPASISCKSSQSLENSNGNTYLNWYLQKPGQSPQLLIYRVSKRFSGVPDRFSGSGSGTDFTLKISRVEAEDVGVYYCLQLTHVPYTFGQGTKLEIK
notes: Soluble Fab expressed from the phagemid in bacterial supernatant (Flag-tagged); also called Parental 8B8; CD19 (8B8)
B2: anti-CD19 clone 8B8 in P329GLALA human IgG1 format (antibody, V domains shown)
VH: B1 VH
VL: DIVMTQTPLSLSVTPGQPASISCKSSQSLENSNGNTYLNWYLQKPGQSPQLLIYRVSKRFSGVPDRFSGSGSGTDFTLKISRVEAEDVGVYYCLQLTHVPYTFGQGTKLEIKR
notes: also called Parental 8B8; parental antibody 8B8
B3: anti-CD19 clone 5B08 in P329GLALA human IgG1 format (antibody, V domains shown)
VH: B1 VH with S105P, A106Q
VL: B2 VL with N31T, N33T, T97D, H98S, V99Y, Y101N
notes: also called CD19 (8B8-5B08)
B4: anti-CD19 clone 5H09 in P329GLALA human IgG1 format (antibody, V domains shown)
VH: B1 VH
VL: B2 VL with N31S, N33T, T97I, H98D, V99Y, Y101V
notes: also called CD19 (8B8-5H09)
B5: anti-CD19 clone 7H07 in P329GLALA human IgG1 format (antibody, V domains shown)
VH: B1 VH with A106E
VL: B2 VL with N31T, N33T, L96A, V99I
notes: also called CD19 (8B8-7H07)
B6: anti-CD19 clone 2B03 in P329GLALA human IgG1 format (antibody, V domains shown)
VH: B1 VH with M34T, S105P, A106D
VL: B2 VL with N31T, N33T
notes: also called CD19 (8B8-2B03)
B7: anti-CD19 clone 2B11 in P329GLALA human IgG1 format (antibody, V domains shown)
VH: B1 VH with S105P, A106Q
VL: B2 VL with N31T, N33T, N35T, T97L, H98E, V99D
notes: also called CD19 (8B8-2B11)

How the values were obtained:
[1] = molecular target: T2, monomeric human CD19 Fc(kih) fusion protein (human, UniProt P0DOX5 223-449 = IgG part); test: SPR ProteOn XPR36, Fab from bacterial supernatant captured by anti-human Fab, monomeric CD19-Fc as analyte
T2 construct: Heterodimeric Fc fusion with a single copy of the CD19 ectodomain; Part of the preparation was biotinylated at the Avi tag; the SPR text speaks of 'purified monomeric CD19-Fc' as analyte without saying whether it was biotinylated; also called monomeric CD19-Fc; human CD19-Fc fusion protein
Protocol: In order to further characterize the ELISA-positive clones, the off-rate was measured by surface plasmon resonance using a ProteOn XPR36 machine and compared with the parental humanized clone 8B8.
For this experiment, 7000 RU of polyclonal anti-human Fab antibody were immobilized on all 6 channels of a GLM chip by Amine coupling (NaAcetate pH4.5, 25 μl/min, 240 s) (vertical orientation). Each antibody-containing bacterial supernatant was filtered and 2-fold diluted with PBS, and then injected for 360 s at 25 μl/minute to achieve immobilization levels of between 100 and 400 response units (RU) in vertical orientation. Injection of monomeric CD19-Fc: For one-shot kinetics measurements, injection direction was changed to horizontal orientation, three-fold dilution series of purified monomeric CD19-Fc (varying concentration ranges between 150 and 6 nM) were injected simultaneously at 50 μl/min along separate channels 1-4, with association times of 180 s, and dissociation times of 300 s. […] Dissociation rate constants (koff) were calculated using a simple one-to-one Langmuir binding model in ProteOn Manager v3.1 software by simultaneously fitting the sensorgrams. […] Of note, the dissociation rate constants of clones 5A07 and 5B08 could not be determined due to inadequate fitting. […]

[2] = molecular target: T2, monomeric human CD19 Fc(kih) fusion …; test: SPR ProteOn XPR36, 25 C, IgG from HEK supernatant captured by anti-human Fab, monomeric CD19-Fc as analyte
Protocol: The Affinity (KD) of the parental antibody 8B8 as well as it derivatives was measured by SPR using a ProteOn XPR36 instrument (Biorad) at 25° C. 7000 RU of polyclonal anti-human Fab antibody were immobilized on all 6 channels of a GLM chip by Amine coupling (NaAcetate pH4.5, 25 ul/min, 240 s) (vertical orientation). Each antibody-containing HEK supernatant was filtered, diluted with PBST (10 mM phosphate, 150 mM sodium chloride pH 7.4, 0.005% Tween 20) to a concentration of 10 ug/ml, and then injected at a for 360 s at 25 μl/minute to achieve immobilization levels between 500 and 800 response units (RU) in vertical orientation. Injection of monomeric CD19-Fc: For one-shot kinetics measurements, injection direction was changed to horizontal orientation, three-fold dilution series of purified monomeric CD19-Fc (varying concentration ranges between 150 and 6 nM) were injected simultaneously at 50 μl/min along separate channels 1-4, with association times of 180 s, and dissociation times of 300 s. A human IgG Fc fragment (150 nM) was injected in channel 5 as a negative control for specific binding to monomeric CD19-Fc. Buffer (PB ST) was injected along the sixth channel to provide an “in-line” blank for referencing. Regeneration was performed by two pulses of 10 mM glycine pH 1.5 and 50 mM NaOH for 30 s at 90 ul/min (vertical orientation). Association rate constants (kₒₙ) and dissociation rate constants (koff) were calculated using a simple one-to-one Langmuir binding model in ProteOn Manager v3.1 software by simultaneously fitting the association and dissociation sensorgrams. The equilibrium dissociation constant (KD) was calculated as the ratio koff/kₒₙ. The dissociation constant of all affinity-matured clones was improved compared to their parental clone 8B8.

[3] = molecular target: T1, human CD19 on WSU-DLCL2 cells; test: flow cytometry on CD19+ WSU-DLCL2 cells, PE anti-human IgG F(ab')2 detection
Protocol: 0.1×10⁶ tumor cells resuspended in DPBS (Gibco by Life Technologies, Cat. No. 14190 326) were added to each well of a round-bottom suspension cell 96-well plate (greiner bio-one, cellstar, Cat. No. 650185). Cells were washed once with 200 μL DPBS. Cells were resuspended in 100 μL/well of 4° C. cold DPBS buffer containing 1:5000 diluted Fixable Viability Dye eFluor 660 (eBioscience, Cat. No. 65-0864-18) and plates were incubated for 30 minutes at 4° C. Cells were washed once with 200 μL/well 4° C. cold DPBS buffer and resuspended in 50 μL/well of 4° C. cold FACS buffer (DPBS supplied with 2% FBS, 5 mM EDTA pH8 (Amresco, Cat. No. E177) and 7.5 mM Sodium azide (Sigma-Aldrich S2002)) containing the CD19 binders at a series of concentrations, followed by incubation for 1 hour at 4° C. After extensive washing, cells were further stained with 50 μL/well of 4° C. cold FACS buffer containing 5 μg/mL PE-conjugated AffiniPure anti-human IgG F(ab′)2-fragment-specific goat F(ab′)2 fragment (Jackson ImmunoResearch, Cat. No. 109 116 098) for 30 minutes at 4° C. Cells were then washed twice with 200 μL/well 4° C. FACS buffer and cells were fixed in 50 μL/well DPBS containing 1% Formaldehyde (Sigma, HT501320-9.5L). Cells were resuspended in 100 μL/well FACS-buffer and acquired using the FACS LSR II (BD Biosciences). Data was analyzed using FlowJo V10 (FlowJo, LLC) and GraphPad Prism 6.04 (GraphPad Software, Inc).

Row | Binder | EC50 [3] | further results
1 | B1 |  | koff [1]: 0.000301 s⁻¹
2 | B2 |  | Kd [2]: 2.36 nM; koff [2]: 0.000134 s⁻¹; kon [2]: 56600 M⁻¹ s⁻¹
3 | B3 | 0.014 nM | 
4 | B4 | 0.02 nM | 
5 | B5 | 0.034 nM | 
6 | B6 | 0.041 nM | 
7 | B7 | 0.034 nM | 
